# Patent publication US20170267755A1 (SRI INTERNATIONAL, published 2017)
# B1: Nb A1 (VHH)
# VHH: HPGGSLRLSCAASGIDLSLYRMRWYRQAPGKERDLVALITDDGTSYYEDSVKGRFTITRDNPSNKVFLQMNSLKPEDTAVYYCNAETPLSPVNYWGQ
# notes: Llama VHH made in the E. coli periplasm with a C-terminal His tag; also called G3A; G3a; not shown: C-terminal hexahistidine tag
# B2: Nb C6 (VHH)
# VHH: QAGGSLRLSCAPSGSIFGIRTMDWYRQAPGKERELVARITMDGRVFHADSVKGRFSGSRDGASNAVYLQMNSLKPDDTAVYYCRYSGLTSREDYWGP
# notes: Llama VHH made in the E. coli periplasm with a C-terminal His tag; also called F10; not shown: C-terminal hexahistidine tag
# Molecular target: T1, human mesothelin expressed on the plasma membrane of cells (HeLa, OVCAR-3, SK-OV-3, A1847) (human, UniProt Q13421 296-598)
# T1 construct: whole, on cells; GPI-linked cell-surface form on human cell lines and on A1847 spheroid sections and tumors; also called Msln
# T1 sequence (Q13421 other isoform, or with tags, fused parts or gaps limits assumed): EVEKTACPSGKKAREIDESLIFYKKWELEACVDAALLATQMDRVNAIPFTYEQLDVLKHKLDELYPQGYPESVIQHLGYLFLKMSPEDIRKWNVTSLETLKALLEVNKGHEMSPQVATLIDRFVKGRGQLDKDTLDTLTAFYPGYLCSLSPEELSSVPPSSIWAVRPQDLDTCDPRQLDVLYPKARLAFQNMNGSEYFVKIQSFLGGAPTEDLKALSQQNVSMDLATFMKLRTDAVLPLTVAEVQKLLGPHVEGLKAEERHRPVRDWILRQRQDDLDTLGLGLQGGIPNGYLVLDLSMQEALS
# Assay: flow cytometry on HeLa cells, chemically biotinylated Nb, PE-streptavidin, double-reciprocal fit
# Description: In specific experimental embodiments, the affinity of the two Nbs, Nb A1 and Nb C6, can determined by flow cytometry using HeLa cells. Binding to HeLa cells can be detected using flow cytometry after incubation with various concentrations of biotinylated Nbs followed by PE-labeled streptavidin. KD values are determined by the equation KD=a *Fₘₐₓ in which “a” is the regression line and Fₘₐₓ is the maximum of fluorescence. […] In addition, the higher affinity and maximum mean fluorescence intensity (MFI) achieved with Nb A1 is consistent with its predominant representation in the phage display output and the larger fluorescence shift seen with flow cytometry.
# Briefly, fifty μg of each Nb are biotinylated chemically using the EZ-Link Micro NHSPEO4-Biotinylation Kit. After incubation of mesothelin-positive HeLa cells (5×10⁵) with various concentrations of biotinylated Nbs for one hour at four degrees C. under shaking (nine hundred rpm), Nbs binding is detected by flow cytometry following incubation with (PE)-labeled streptavidin. The KD values are determined by the equation: […]
row,Binder,Kd [nM]
1,B1,~15
2,B2,30
